According to patent US20220242973A1 (Molecular Partners, published 2022):

Molecular target: T1, Human FAP expressed on the cell surface (WI38, CHO-FAP1.9, U87MG cells) (human, UniProt Q12884 1-760)
T1 construct: whole, on cells; Endogenous on WI38 and U87MG cells; from a human FAP cDNA (OriGene) in CHO-FAP1.9 cells; also called hFAP; FAP+ cells
T1 sequence (looked up): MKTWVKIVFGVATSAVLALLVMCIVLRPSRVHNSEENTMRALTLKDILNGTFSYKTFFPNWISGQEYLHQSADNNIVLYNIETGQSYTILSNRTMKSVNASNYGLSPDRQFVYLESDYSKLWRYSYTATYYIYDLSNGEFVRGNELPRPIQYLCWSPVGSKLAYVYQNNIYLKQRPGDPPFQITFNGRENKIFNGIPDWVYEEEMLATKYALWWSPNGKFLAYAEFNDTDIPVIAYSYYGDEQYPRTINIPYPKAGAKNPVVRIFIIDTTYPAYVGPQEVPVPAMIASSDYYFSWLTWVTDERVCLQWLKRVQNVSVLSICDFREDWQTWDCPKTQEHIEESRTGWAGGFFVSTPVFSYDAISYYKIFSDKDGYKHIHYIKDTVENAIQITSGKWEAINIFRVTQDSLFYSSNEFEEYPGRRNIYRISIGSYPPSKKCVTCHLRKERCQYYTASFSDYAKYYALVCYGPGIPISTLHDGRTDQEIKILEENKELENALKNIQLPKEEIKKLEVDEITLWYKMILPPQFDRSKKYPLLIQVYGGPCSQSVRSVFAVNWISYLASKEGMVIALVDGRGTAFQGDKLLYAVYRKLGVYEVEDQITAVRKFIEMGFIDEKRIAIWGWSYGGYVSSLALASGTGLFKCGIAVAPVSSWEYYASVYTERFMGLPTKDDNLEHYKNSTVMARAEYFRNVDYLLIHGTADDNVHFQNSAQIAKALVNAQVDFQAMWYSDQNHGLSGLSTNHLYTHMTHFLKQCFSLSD
Experiment: FACS on WI38 cells (FAP on the cell surface), His-tag detected with Penta-His AF647 conjugate, median fluorescence intensity
Method: In order to determine whether the fusion of a biologically active molecule to a FAP-specific ankyrin repeat domain affects the ability of the molecule to specifically recognize and bind to FAP expressed on the surface of cells, the binding of selected ankyrin repeat fusion proteins to FAP-expressing cells was tested. U87 MG cells and WI38 cells are known to express FAP on the cell surface and they were chosen as representative cells for these experiments. FAP expression on the U87 MG and WI38 cells was confirmed by FACS analysis (data not shown).
Using multi-well plates, 40,000 cells (either U87MG or WI38) were added per well in 50 μl of PBS. 50 μl of appropriate dilutions (2× dilution steps) of ankyrin repeat fusion protein (DARPin® protein #40 or DARPin® protein #41) was then added to the cells and incubated for 30 minutes on ice. After the ankyrin repeat fusion protein-binding reaction, cells were washed twice with PBS. Direct immunofluorescent detection of the His-tagged ankyrin repeat fusion proteins using Penta-His AF647 conjugate (QIAgen) and determination of live cells using LIVE/DEAD™ Fixable Green Dead Cell Stain Kit (ThermoFisher) were then performed together in one step. […] Acquisition and FACS analysis, including the determination of median fluorescence intensity (MFI), were done within 5 days after staining using an AttuneNxT instrument. […]

B1: DARPin® protein #41 (designed binder)
chain: MRGSHHHHHHGSDLGKKLLEAARAGQDDEVRELLKAGADVNAKDYFSHTPLHLAARNGHLKIVEVLLKAGADVNAKDFAGKTPLHLAANEGHLEIVEVLLKAGADVNAQDIFGKTPADIAADAGHEDIAEVLQKAAGSPTPTPTTPTPTPTTPTPTPTGSDLGEKLLVAALYGQDDEVRILLAAGADVNAKDQWGLTPLHKAALQGHLEIVEVLLKAGADVNAKDERGHTPLHWAARFGHLEIVEVLLKAGADVNAQDQKGYTPADLAALWGHEDIAEVLQKAA
notes: Fusion of a serum albumin-specific and a FAP-specific ankyrin repeat domain
- EC50 (read off the curve): ~2 nM
